Publication PMC11032447 (2024)
Residue numbers refer to the chain shown, from its start.

T1: mouse secretagogin V233A (mouse, UniProt Q91WD9 1-276, V233A)
T1 sequence: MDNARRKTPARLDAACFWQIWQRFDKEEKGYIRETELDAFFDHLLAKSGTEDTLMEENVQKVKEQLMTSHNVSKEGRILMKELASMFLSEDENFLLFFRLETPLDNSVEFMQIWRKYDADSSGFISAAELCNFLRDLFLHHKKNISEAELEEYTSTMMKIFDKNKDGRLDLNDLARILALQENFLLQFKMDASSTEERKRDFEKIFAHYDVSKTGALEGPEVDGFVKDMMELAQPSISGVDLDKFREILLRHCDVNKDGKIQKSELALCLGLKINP

T2: mouse secretagogin M229A (mouse, UniProt Q91WD9 1-276, M229A)
T2 sequence: T1 sequence with M229A, A233V

T3: mouse secretagogin R198A (mouse, UniProt Q91WD9 1-276, R198A)
T3 sequence: T1 sequence with R198A, A233V

T4: mouse secretagogin M229E (mouse, UniProt Q91WD9 1-276, M229E)
T4 sequence: T1 sequence with M229E, A233V

B1: helix-b of the Habc domain of mouse syntaxin-4 (domain or fragment)
chain: TPLPEESMKQGLQNLREEIKQLGREVRAQLKAIEPQKE
B2: mouse secretagogin (natural protein)
chain: T1 sequence with A233V

Key:
Assay in all cases: ITC
mouse secretagogin V233A = molecular target: T1, mouse secretagogin V233A
mouse secretagogin M229A = molecular target: T2, mouse secretagogin M229A
mouse secretagogin R198A = molecular target: T3, mouse secretagogin R198A
mouse secretagogin M229E = molecular target: T4, mouse secretagogin M229E
[1] = molecular target: C-terminal SNARE domain of mouse SNAP-25 (mouse, UniProt P60879 140-206)
[2] = molecular target: B1

C-terminal SNARE domain of mouse SNAP-25, sequence (P60879 140-206): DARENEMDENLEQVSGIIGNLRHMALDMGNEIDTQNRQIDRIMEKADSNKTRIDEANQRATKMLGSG

| Kd (mouse secretagogin V233A) | Kd (mouse secretagogin M229A) | Kd (mouse secretagogin R198A) | Kd (mouse secretagogin M229E) | Kd [1] | Kd [2] | Binder |
| --- | --- | --- | --- | --- | --- | --- |
| 0.125 µM | 1.62 µM | 0.808 µM | 5.21 µM |  |  | B1 |
|  |  |  |  | 0.0219 µM | 0.407 µM | B2 |
